Data reported in article PMC8131568, “A noncanonical heme oxygenase specific for the degradation of c-type heme” (The Journal of Biological Chemistry, 2021).

Target: the molecule itself
Assay: crystal structure; Pden_1323 alone at 12 mg/ml; sitting-drop vapor diffusion; 14% glycerol, 18 to 25% PEG 4000, 0.3 M sodium acetate, 0.1 M Tris pH 8.8

B1: Pden_1323 (enzyme, Paracoccus denitrificans PD1222)
chain: MKIDPIRETTDEARALARQLLEAARHASLGTLDPETGVPLVTRIALQTDADGVPLALLAGLAAHARALAVDPRAGLLIAAEAAKGDAMTHARLSILGRAVPAEPDENRRARWLERDPKAKVYLDLPDFRFWRIEPVSGLLNAGFGQAFKLTASDMLKPPAE
notes: Pden_1323, product of the pden_1323 gene of Paracoccus denitrificans PD1222 (opp gene cluster), codon-optimized and cloned NdeI/XhoI into pET-28b(+); HugZ homolog; also called c-type heme oxygenase; CHO; source: Superdex 200 for crystallography; not shown: His-tag, N-terminal, cleaved
Question: Does B1 bind?
Answer: binds
